The target of this experiment is Vibrio maritimus FtsA residues 1-396 (Vibrio maritimus). Kind of experiment: SPR.

“Vibrio maritimus FtsN cytoplasmic peptide, residues 1-29” showed a fold weaker than the EcFtsA^1-405-EcFtsN^1-32 interaction (SPR) of 3 fold.

Values taken from paper doi:10.1101/2021.11.08.467742.
